Measurements from PMC4669500, “Characterization of Pseudooxynicotine Amine Oxidase of Pseudomonas putida S16 that Is Crucial for Nicotine Degradation” (Scientific Reports, 2015).

Experiments:
[1] = molecular target: T1, Pnao (pseudooxynicotine amine oxidase) (Pseudomonas putida, UniProt F8G0P1); test: HPLC and UV-Vis of cofactor released by boiling purified protein; format: binding; settings: co-purified cofactor, non-covalent (released by boiling)
T1 construct: full-length, His6-tagged (pET28a NcoI-XhoI, tag kept), expressed in E. coli C43(DE3), about 54 kDa; FAD-containing

CNCCCC(=O)c1cccnc1 = test: purified protein; format: biochemical, Pseudomonas putida; settings: 30 °C, 25 mM sodium phosphate pH 8.5, O2 as oxidant

T1 sequence (F8G0P1 whole entry): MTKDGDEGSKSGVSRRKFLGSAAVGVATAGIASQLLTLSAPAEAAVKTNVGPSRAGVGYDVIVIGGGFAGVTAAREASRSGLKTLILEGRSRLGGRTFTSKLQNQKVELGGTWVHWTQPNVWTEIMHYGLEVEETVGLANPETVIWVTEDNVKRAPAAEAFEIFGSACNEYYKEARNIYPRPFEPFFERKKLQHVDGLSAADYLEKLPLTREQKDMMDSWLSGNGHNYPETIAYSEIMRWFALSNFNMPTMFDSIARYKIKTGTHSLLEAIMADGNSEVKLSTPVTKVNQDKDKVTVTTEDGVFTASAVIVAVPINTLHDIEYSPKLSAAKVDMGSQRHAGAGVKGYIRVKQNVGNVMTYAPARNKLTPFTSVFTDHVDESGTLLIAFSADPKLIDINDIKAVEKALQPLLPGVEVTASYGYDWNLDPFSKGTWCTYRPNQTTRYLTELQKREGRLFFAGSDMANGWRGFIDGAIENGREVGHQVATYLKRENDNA

Cc1cc2nc3c(=O)[nH]c(=O)nc-3n(C[C@H](O)[C@H](O)[C@H](O)COP(=O)(O)OP(=O)(O)OC[C@H]3O[C@@H](n4cnc5c(N)ncnc54)[C@H](O)[C@@H]3O)c2cc1C [FAD, Flavin adenine dinucleotide]
HPLC and UV-Vis of cofactor released by boiling purified protein [1]: These results indicated that FAD was the cofactor associated with Pnao

Pnao (pseudooxynicotine amine oxidase) (Pseudomonas putida S16)
Km (CNCCCC(=O)c1cccnc1): 73 ± 18 µM
kcat (CNCCCC(=O)c1cccnc1): 0.790 ± 0.074 s⁻¹
